Where two headings read alike, the source gives them in different places. Values belong to the binder of their own block, whether it stands above or below them.
Experiments:
[1] = biological target: human FcRn (with beta2-microglobulin) (human); test: SPR, neutral pH
[2] = biological target: human FcRn (with beta2-microglobulin) (human); test: SPR, pH 7.0
[3] = biological target: human FcRn (with beta2-microglobulin) (human); test: SPR, pH 7.0; remark: listed apart in the source
[4] = biological target: human FcRn (with beta2-microglobulin) (human); test: SPR, pH 7.0; remark: listed apart in the source
human FcgRIIb [5] = biological target: T1, human FcgRIIb (human); test: SPR
T1 chain: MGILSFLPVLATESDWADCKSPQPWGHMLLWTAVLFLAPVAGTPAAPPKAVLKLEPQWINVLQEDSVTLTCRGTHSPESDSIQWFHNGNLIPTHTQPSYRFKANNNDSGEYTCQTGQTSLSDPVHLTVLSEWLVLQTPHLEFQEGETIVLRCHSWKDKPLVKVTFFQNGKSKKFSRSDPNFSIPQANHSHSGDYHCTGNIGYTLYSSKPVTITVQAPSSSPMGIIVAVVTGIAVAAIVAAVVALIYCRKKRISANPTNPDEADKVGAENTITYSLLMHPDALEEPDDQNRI

human FcgRIIb [6] = biological target: T1, human FcgRIIb; test: SPR
human FcgRIIb [7] = biological target: T1, human FcgRIIb; test: SPR
human FcgRIIa(R) = biological target: T2, human FcgRIIa(R) (human); test: SPR
T2 chain: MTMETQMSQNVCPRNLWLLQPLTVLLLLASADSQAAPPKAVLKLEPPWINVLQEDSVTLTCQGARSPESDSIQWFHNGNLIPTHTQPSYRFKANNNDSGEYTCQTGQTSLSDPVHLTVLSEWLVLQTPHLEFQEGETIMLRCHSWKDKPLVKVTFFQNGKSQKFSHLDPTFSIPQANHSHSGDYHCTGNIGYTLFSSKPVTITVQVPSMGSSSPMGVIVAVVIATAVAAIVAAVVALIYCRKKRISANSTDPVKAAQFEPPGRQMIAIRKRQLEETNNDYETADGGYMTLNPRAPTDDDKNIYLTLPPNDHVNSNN

human FcgRIa = human FcgRIa (human); test: SPR
human FcgRIa (human), sequence (chain, as listed by the source): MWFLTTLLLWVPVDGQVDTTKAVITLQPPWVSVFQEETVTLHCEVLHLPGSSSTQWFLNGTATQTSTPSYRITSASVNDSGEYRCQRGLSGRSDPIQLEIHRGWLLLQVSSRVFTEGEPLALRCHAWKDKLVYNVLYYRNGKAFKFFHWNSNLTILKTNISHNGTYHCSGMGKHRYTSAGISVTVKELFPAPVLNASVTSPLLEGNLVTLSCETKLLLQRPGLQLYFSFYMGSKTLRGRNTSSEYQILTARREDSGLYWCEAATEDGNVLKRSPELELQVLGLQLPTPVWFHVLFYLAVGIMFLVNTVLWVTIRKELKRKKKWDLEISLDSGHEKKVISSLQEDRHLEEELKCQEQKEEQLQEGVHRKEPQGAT

human FcgRIIIa(V) = human FcgRIIIa(V) (human); test: SPR
human FcgRIIIa(V) (human), sequence (chain, as listed by the source): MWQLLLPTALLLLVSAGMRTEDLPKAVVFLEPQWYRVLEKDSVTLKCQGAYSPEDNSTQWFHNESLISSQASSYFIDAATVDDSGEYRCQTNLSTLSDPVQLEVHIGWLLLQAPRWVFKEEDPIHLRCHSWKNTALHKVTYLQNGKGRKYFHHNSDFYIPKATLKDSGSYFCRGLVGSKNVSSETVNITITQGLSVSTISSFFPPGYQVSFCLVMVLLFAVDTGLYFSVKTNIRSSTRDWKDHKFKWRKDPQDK

Kd [1]: 300 nM
B1: F39 (antibody)
chain 1: QVQLQESGPGLVKPSETLSLTCAVSGHSISHDHAWSWVRQPPGEGLEWIGFISYSGITNYNPSLQGRVTISRDNSKNTLYLQMNSLRAEDTAVYYCARSLARTTAMDYWGEGTLVTVSSASTKGPSVFPLAPSSKSTSGGTAALGCLVKDYFPEPVTVSWNSGALTSGVHTFPAVLQSSGLYSLSSVVTVPSSSLGTQTYICNVNHKPSNTKVDKKVEPKSCDKTHTCPPCPAPELLGGPSVFLFPPKPKDTLYITRTPEVTCVVVDVSHEDPEVKFNWYVDGVEVHNAKTKPREEQYNSTYRVVSVLTVLHQDWLNGKEYKCKVSNKALPAPIEKTISKAKGQPREPQVYTLPPSRDELTKNQVSLTCLVKGFYPSDIAVEWESNGQPENNYKTTPPVLDSDGSFFLYSKLTVDKSRWQQGNVFSCSVMHEALHYHYTQKSLSLSP
chain 2: not shown

Kd [2]: 310 nM
B2: F821 (antibody)
chain 1: QVQLQESGPGLVKPSETLSLTCAVSGHSISHDHAWSWVRQPPGEGLEWIGFISYSGITNYNPSLQGRVTISRDNSKNTLYLQMNSLRAEDTAVYYCARSLARTTAMDYWGEGTLVTVSSASTKGPSVFPLAPSSKSTSGGTAALGCLVKDYFPEPVTVSWNSGALTSGVHTFPAVLQSSGLYSLSSVVTVPSSSLGTQTYICNVNHKPSNTKVDKKVEPKSCDKTHTCPPCPAPELRGGPKVFLFPPKPKDTLYISRTPEVTCVVVDVSHEDPEVKFNWYVDGVEVHNAKTKPREEQYNSTYRVVSVLTVLHQDWLNGKEYKCKVSNKALPAPIEKTISKAKGQPREPQVYTLPPSRDELTKNQVSLTCLVKGFYPSDIAVEWESNGQPENNYKTTPPVLDSDGSFFLYSKLTVDKSRWQQGNVFSCSVMHEALHYHYTQKSLSLSP
chain 2: not shown

Kd [3]: 150 nM
B3: IgG1-F157 (antibody)
chain 1: QVQLQESGPGLVKPSETLSLTCAVSGHSISHDHAWSWVRQPPGEGLEWIGFISYSGITNYNPSLQGRVTISRDNSKNTLYLQMNSLRAEDTAVYYCARSLARTTAMDYWGEGTLVTVSSASTKGPSVFPLAPSSKSTSGGTAALGCLVKDYFPEPVTVSWNSGALTSGVHTFPAVLQSSGLYSLSSVVTVPSSSLGTQTYICNVNHKPSNTKVDKKVEPKSCDKTHTCPPCPAPELLGGPSVFLFPPKPKDTLMISRTAEVTCVVVDVSHEDPEVKFNWYVDGVEVHNAKTKPREEQYNSTYRVVSVLTPLHQDWLNGKEYKCKVSNKALPAPIEKTISKAKGQPREPQVYTLPPSRDELTKNQVSLTCLVKGFYPSDIAVEWESNGQPENNYKTTPPVLDSDGSFFLYSKLTVDKSRWQQGNVFSCSVLHEALHYHYTQKSLSLSP
chain 2: not shown

Kd [4]: 153 nM
Kd [2]: 150 nM
B4: F939 (antibody)
chain 1: QVQLQESGPGLVKPSETLSLTCAVSGHSISHDHAWSWVRQPPGEGLEWIGFISYSGITNYNPSLQGRVTISRDNSKNTLYLQMNSLRAEDTAVYYCARSLARTTAMDYWGEGTLVTVSSASTKGPSVFPLAPSSKSTSGGTAALGCLVKDYFPEPVTVSWNSGALTSGVHTFPAVLQSSGLYSLSSVVTVPSSSLGTQTYICNVNHKPSNTKVDKKVEPKSCDKTHTCPPCPAPELRGGPKVFLFPPKPKDTLYISRTPEVTCVVVDVSHEDPEVKFNWYVDGVEVHNAKTKPREEQYNSTYRVVSVLTVLHQDWLNGKEYKCKVSNKALPAPIEKTISKAKGQPREPQVYTLPPSRDELTKNQVSLTCLVKGFYPSDIAVEWESNGQPENNYKTTPPVLDSDGSFFLYSKLTVDKSRWQQGNVFSCSVMHEALHYHVTQKSLSLSP
chain 2: not shown

Kd [3]: 94 nM
B5: IgG1-F424 (antibody)
chain 1: QVQLQESGPGLVKPSETLSLTCAVSGHSISHDHAWSWVRQPPGEGLEWIGFISYSGITNYNPSLQGRVTISRDNSKNTLYLQMNSLRAEDTAVYYCARSLARTTAMDYWGEGTLVTVSSASTKGPSVFPLAPSSKSTSGGTAALGCLVKDYFPEPVTVSWNSGALTSGVHTFPAVLQSSGLYSLSSVVTVPSSSLGTQTYICNVNHKPSNTKVDKKVEPKSCDKTHTCPPCPAPELLGGPKVFLFPPKPKDTLMISRTAEVTCVVVDVSHEDPEVKFNWYVDGVEVHNAKTKPREEQYNSTYRVVSVLTPLHQDWLNGKEYKCKVSNKALPAPIEKTISKAKGQPREPQVYTLPPSRDELTKNQVSLTCLVKGFYPSDIAVEWESNGQPENNYKTTPPVLDSDGSFFLYSKLTVDKSRWQQGNVFSCSVLHEALHYHYTQKSLSLSP
chain 2: not shown

Kd [4]: 12 nM
Kd [2]: 12 nM
B6: F1009 (antibody)
chain 1: QVQLQESGPGLVKPSETLSLTCAVSGHSISHDHAWSWVRQPPGEGLEWIGFISYSGITNYNPSLQGRVTISRDNSKNTLYLQMNSLRAEDTAVYYCARSLARTTAMDYWGEGTLVTVSSASTKGPSVFPLAPSSKSTSGGTAALGCLVKDYFPEPVTVSWNSGALTSGVHTFPAVLQSSGLYSLSSVVTVPSSSLGTQTYICNVNHKPSNTKVDKKVEPKSCDKTHTCPPCPAPELRGGPKVFLFPPKPKDVLYISRTPEVTCVVVDVSHEDPEVKFNWYVDGVEVHNAKTKPREEQYNSTYRVVSVLQPLHADWLNGKEYKCKVSNKALPAPIEKTISKAKGQPREPQVYTLPPSRDELTKNQVSLTCLVKGFYPSDIAVEWESNGQPENNYKTTPPVLDSDGSFFLYSKLTVDKSRWQQGNVFSCSVMHEALHYHVTQKSLSLSP
chain 2: not shown

Kd (human FcgRIIb [5]): 1100 nM
Kd (human FcgRIIb [6]): 1100 nM
B7: IgG1-v1 (antibody)
chain 1: not shown
chain 2: DIQMTQSPSSLSASVGDRVTITCRASQDISSYLNWYQQKPGKAPKLLIYYTSRLHSGVPSRFSGSGSGTDFTFTISSLQPEDIATYYCQQGNTLPYTFGQGTKVEIK

Kd (human FcgRIIb [7]): 2900 nM
Kd (human FcgRIIa(R)): 22000 nM
Kd (human FcgRIa): 52 nM
Kd (human FcgRIIIa(V)): 37000 nM
B8: IL6R-PD087 (antibody)
chain 1: QVQLQESGPGLVKPSETLSLTCAVSGHSISHDHAWSWVRQPPGEGLEWIGFISYSGITNYNPSLQGRVTISRDNSKNTLYLQMNSLRAEDTAVYYCARSLARTTAMDYWGEGTLVTVSSASTKGPSVFPLAPSSKSTSGGTAALGCLVKDYFPEPVTVSWNSGALTSGVHTFPAVLQSSGLYSLSSVVTVPSSSLGTQTYICNVNHKPSNTKVDKKVEPKSCDKTHTCPPCPAPELLGMDSVFLFPPKPKDTLYISRTPEVTCVVVDVSHEDPEVKFNWYVDGVEVHNAKTKPREEQYNSTYRVVSVLTVLHQDWLNGKEYKCKVSNKALPAPIEKTISKAKGQPREPQVYTLPPSRDELTKNQVSLTCLVKGFYPSDIAVEWESNGQPENNYKTTPPVLDSDGSFFLYSKLTVDKSRWQQGNVFSCSVMHEALHYHYTQKSLSLSP
chain 2: DIQMTQSPSSLSASVGDRVTITCRASQDISSYLNWYQQKPGKAPKLLIYYTSRLHSGVPSRFSGSGSGTDFTFTISSLQPEDIATYYCQQGNTLPYTFGQGTKVEIK

Kd (human FcgRIIb [6]): 2300 nM
B9: IgG1-v2 (antibody)
chain 1: not shown
chain 2: DIQMTQSPSSLSASVGDRVTITCRASQDISSYLNWYQQKPGKAPKLLIYYTSRLHSGVPSRFSGSGSGTDFTFTISSLQPEDIATYYCQQGNTLPYTFGQGTKVEIK

Kd (human FcgRIIb [5]): 13 nM
B10: IgG1-v3 (antibody)
chain 1: not shown
chain 2: DIQMTQSPSSLSASVGDRVTITCRASQDISSYLNWYQQKPGKAPKLLIYYTSRLHSGVPSRFSGSGSGTDFTFTISSLQPEDIATYYCQQGNTLPYTFGQGTKVEIK

Kd (human FcgRIIb [5]): 450 nM
B11: IgG1-v5 (antibody)
chain 1: QVQLQESGPGLVKPSETLSLTCAVSGHSISHDHAWSWVRQPPGEGLEWIGFISYSGITNYNPSLQGRVTISRDNSKNTLYLQMNSLRAEDTAVYYCARSLARTTAMDYWGEGTLVTVSSASTKGPSVFPLAPSSKSTSGGTAALGCLVKDYFPEPVTVSWNSGALTSGVHTFPAVLQSSGLYSLSSVVTVPSSSLGTQTYICNVNHKPSNTKVDKKVEPKSCDKTHTCPPCPAPELLGGDSVFLFPPKPKDTLMISRTPEVTCVVVDVEHEDPEVKFNWYVDGVEVHNAKTKPREEQYNSTYRVVSVLTVLHQDWLNGKEYKCKVSNKAFPAPIEKTISKAKGQPREPQVYTLPPSRDELTKNQVSLTCLVKGFYPSDIAVEWESNGQPENNYKTTPPVLDSDGSFFLYSKLTVDKSRWQQGNVFSCSVMHEALHNHYTQKSLSLSP
chain 2: DIQMTQSPSSLSASVGDRVTITCRASQDISSYLNWYQQKPGKAPKLLIYYTSRLHSGVPSRFSGSGSGTDFTFTISSLQPEDIATYYCQQGNTLPYTFGQGTKVEIK

Kd (human FcgRIIb [6]): 11000 nM
B12: IgG1-v4 (antibody)
chain 1: not shown
chain 2: DIQMTQSPSSLSASVGDRVTITCRASQDISSYLNWYQQKPGKAPKLLIYYTSRLHSGVPSRFSGSGSGTDFTFTISSLQPEDIATYYCQQGNTLPYTFGQGTKVEIK
